Laboratory results taken from patent publication US20260209293A1 (Novo Nordisk, published 2026).
Blank lines part the entries; values can stand above or below the binder they belong to. *1 amine or outer side, *2 acyl side, *3 side chain or, on linkers, in order; H or OH if unused. The star is where a group is joined. C20 diacid = O=C(O)CCCCCCCCCCCCCCCCCCC(=O)*; C18 diacid = O=C(O)CCCCCCCCCCCCCCCCC(=O)*; γGlu = O=C(O)[C@H](CCC(=O)[*:2])N[*:1]

Columns and labels:
[1] = molecular target: T1, human amylin-3(a) receptor (human, UniProt P30988 25-474; O60896 24-148); test: cell-based or functional assay
T1 sequence (looked up) 1: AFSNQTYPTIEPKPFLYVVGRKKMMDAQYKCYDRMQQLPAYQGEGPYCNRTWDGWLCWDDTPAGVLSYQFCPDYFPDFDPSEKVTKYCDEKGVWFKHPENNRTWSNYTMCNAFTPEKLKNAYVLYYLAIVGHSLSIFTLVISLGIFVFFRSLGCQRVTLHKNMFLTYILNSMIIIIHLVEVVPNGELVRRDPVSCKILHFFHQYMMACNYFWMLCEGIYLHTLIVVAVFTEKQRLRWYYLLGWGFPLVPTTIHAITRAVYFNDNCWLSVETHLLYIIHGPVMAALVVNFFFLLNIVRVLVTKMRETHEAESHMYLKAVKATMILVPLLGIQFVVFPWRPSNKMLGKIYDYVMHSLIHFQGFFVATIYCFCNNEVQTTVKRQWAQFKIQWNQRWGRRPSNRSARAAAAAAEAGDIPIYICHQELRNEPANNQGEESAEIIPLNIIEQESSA
T1 sequence (looked up) 2: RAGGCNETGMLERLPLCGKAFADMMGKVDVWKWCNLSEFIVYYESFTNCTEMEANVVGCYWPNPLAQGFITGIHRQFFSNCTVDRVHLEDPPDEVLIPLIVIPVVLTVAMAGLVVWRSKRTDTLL

[2] = molecular target: T2, human calcitonin receptor (a) (human, UniProt P30988 25-474); test: cell-based or functional assay
T2 sequence (looked up): T1 sequence (looked up) 1

hAmyR3 potency, EC50 (pM); CRE-luciferase reporter in BHK cells [1]: 1.12 pM
hCalcR potency, EC50 (pM); CRE-luciferase reporter in BHK cells [2]: 1.44 pM
B1: N^1-[(4S)-4-carboxy-4-(19-carboxynonadecanoylamino)butanoyl]-[Ala1,Ser2,His3,Leu4,Ser5,Ala7,Gln8,Glu14,His17,Pro25,Pro28,Pro29,Asp31,Glu35,Pro37],des-(19-22)-hu … (peptide)
peptide: {C20 diacid-γGlu}-ASHLSTAQTQRLAEFLHHFGPILPPTDVGSETP-NH2
SMILES: CC[C@H](C)[C@H](NC(=O)[C@@H]1CCCN1C(=O)CNC(=O)[C@H](Cc1ccccc1)NC(=O)[C@H](Cc1c[nH]cn1)NC(=O)[C@H](Cc1c[nH]cn1)NC(=O)[C@H](CC(C)C)NC(=O)[C@H](Cc1ccccc1)NC(=O)[C@H](CCC(=O)O)NC(=O)[C@H](C)NC(=O)[C@H](CC(C)C)NC(=O)[C@H](CCCNC(=N)N)NC(=O)[C@H](CCC(N)=O)NC(=O)[C@@H](NC(=O)[C@H](CCC(N)=O)NC(=O)[C@H](C)NC(=O)[C@@H](NC(=O)[C@H](CO)NC(=O)[C@H](CC(C)C)NC(=O)[C@H](Cc1c[nH]cn1)NC(=O)[C@H](CO)NC(=O)[C@H](C)NC(=O)CC[C@H](NC(=O)CCCCCCCCCCCCCCCCCCC(=O)O)C(=O)O)[C@@H](C)O)[C@@H](C)O)C(=O)N[C@@H](CC(C)C)C(=O)N1CCC[C@H]1C(=O)N1CCC[C@H]1C(=O)N[C@H](C(=O)N[C@@H](CC(=O)O)C(=O)N[C@H](C(=O)NCC(=O)N[C@@H](CO)C(=O)N[C@@H](CCC(=O)O)C(=O)N[C@H](C(=O)N1CCC[C@H]1C(N)=O)[C@@H](C)O)C(C)C)[C@@H](C)O

hAmyR3 potency, EC50 (pM); CRE-luciferase reporter in BHK cells [1]: 2.03 pM
hCalcR potency, EC50 (pM); CRE-luciferase reporter in BHK cells [2]: 2.13 pM
B2: N^1-[(4S)-4-carboxy-4-[[(4S)-4-carboxy-4-(17-carboxyheptadecanoylamino)butanoyl]amino]butanoyl]-[Ala1,Ser2,His3,Leu4,Ser5,Ala7,Gln8,Glu14,His17,Pro25,Pro28,Pro2 … (peptide)
peptide: {C18 diacid-γGlu-γGlu}-ASHLSTAQTQRLAEFLHHFGPILPPTDVGSETP-NH2
SMILES: CC[C@H](C)[C@H](NC(=O)[C@@H]1CCCN1C(=O)CNC(=O)[C@H](Cc1ccccc1)NC(=O)[C@H](Cc1c[nH]cn1)NC(=O)[C@H](Cc1c[nH]cn1)NC(=O)[C@H](CC(C)C)NC(=O)[C@H](Cc1ccccc1)NC(=O)[C@H](CCC(=O)O)NC(=O)[C@H](C)NC(=O)[C@H](CC(C)C)NC(=O)[C@H](CCCNC(=N)N)NC(=O)[C@H](CCC(N)=O)NC(=O)[C@@H](NC(=O)[C@H](CCC(N)=O)NC(=O)[C@H](C)NC(=O)[C@@H](NC(=O)[C@H](CO)NC(=O)[C@H](CC(C)C)NC(=O)[C@H](Cc1c[nH]cn1)NC(=O)[C@H](CO)NC(=O)[C@H](C)NC(=O)CC[C@H](NC(=O)CC[C@H](NC(=O)CCCCCCCCCCCCCCCCC(=O)O)C(=O)O)C(=O)O)[C@@H](C)O)[C@@H](C)O)C(=O)N[C@@H](CC(C)C)C(=O)N1CCC[C@H]1C(=O)N1CCC[C@H]1C(=O)N[C@H](C(=O)N[C@@H](CC(=O)O)C(=O)N[C@H](C(=O)NCC(=O)N[C@@H](CO)C(=O)N[C@@H](CCC(=O)O)C(=O)N[C@H](C(=O)N1CCC[C@H]1C(N)=O)[C@@H](C)O)C(C)C)[C@@H](C)O

hAmyR3 potency, EC50 (pM); CRE-luciferase reporter in BHK cells [1]: 5.2 pM
hCalcR potency, EC50 (pM); CRE-luciferase reporter in BHK cells [2]: 3.08 pM
B3: N^1-[(4S)-4-carboxy-4-(17-carboxyheptadecanoylamino)butanoyl]-[Ala1,Ser2,Glu3, Leu4, Ser5,Ala7,Gln8,Glu14, His17, Pro25, Pro28, Pro29,Asp31,Glu35, … (peptide)
peptide: {C18 diacid-γGlu}-ASELSTAQTQRLAEFLHHFGPILPPTDVGSETP-NH2
SMILES: CC[C@H](C)[C@H](NC(=O)[C@@H]1CCCN1C(=O)CNC(=O)[C@H](Cc1ccccc1)NC(=O)[C@H](Cc1c[nH]cn1)NC(=O)[C@H](Cc1c[nH]cn1)NC(=O)[C@H](CC(C)C)NC(=O)[C@H](Cc1ccccc1)NC(=O)[C@H](CCC(=O)O)NC(=O)[C@H](C)NC(=O)[C@H](CC(C)C)NC(=O)[C@H](CCCNC(=N)N)NC(=O)[C@H](CCC(N)=O)NC(=O)[C@@H](NC(=O)[C@H](CCC(N)=O)NC(=O)[C@H](C)NC(=O)[C@@H](NC(=O)[C@H](CO)NC(=O)[C@H](CC(C)C)NC(=O)[C@H](CCC(=O)O)NC(=O)[C@H](CO)NC(=O)[C@H](C)NC(=O)CC[C@H](NC(=O)CCCCCCCCCCCCCCCCC(=O)O)C(=O)O)[C@@H](C)O)[C@@H](C)O)C(=O)N[C@@H](CC(C)C)C(=O)N1CCC[C@H]1C(=O)N1CCC[C@H]1C(=O)N[C@H](C(=O)N[C@@H](CC(=O)O)C(=O)N[C@H](C(=O)NCC(=O)N[C@@H](CO)C(=O)N[C@@H](CCC(=O)O)C(=O)N[C@H](C(=O)N1CCC[C@H]1C(N)=O)[C@@H](C)O)C(C)C)[C@@H](C)O
